Results published in publication PMC10135718, “Inhibitory Peptide of Soluble Guanylyl Cyclase/Trx1 Interface Blunts the Dual Redox Signaling Functions of the Complex” (Antioxidants, 2023).

Molecular target: the molecule itself
Test: non-reducing SDS-PAGE with Western blot; purified GC1 or Trx1, untreated, reduced (10 mM DTT) or oxidized (100 μM diamide), excess reagent removed; 12% SDS-PAGE under non-reducing conditions, blots probed with anti-GC1 α and β or anti-Trx1

B1: oxidized Trx1 (oTrx1) (enzyme, human, UniProt P10599 1-105, looked up)
chain: MVKQIESKTAFQEALDAAGDKLVVVDFSATWCGPCKMIKPFFHSLSEKYSNVIFLEVDVDDCQDVASECEVKCMPTFQFFKKGQKVGEFSGANKEKLEATINELV
modifications: thiols oxidized with 100 μM diamide (the cysteine engaged in the homodimer is not identified)
notes: Thioredoxin 1, human; same protein as m2, oxidized; mostly a dimer on a non-reducing gel; also used here for the endogenous Trx1 of Jurkat T cells in two functional rows; also called oxidized thioredoxin; source: bought: Fitzgerald industries (30R-2985); treated with 100 μM diamide on ice for 30 min, excess removed
binding result: binds

B2: recombinant human Thioredoxin 1 (Trx1), untreated (enzyme, UniProt P10599 1-105, looked up)
chain: B1 chain
notes: Thioredoxin 1, human; also called untreated Trx1; source: bought: Fitzgerald industries (30R-2985)
binding result: binds

B3: oxidized GC1 (oGC1) (complex, human)
chain 1: MFCTKLKDLKITGECPFSLLAPGQVPNESSEEAAGSSESCKATVPICQDIPEKNIQESLPQRKTSRSRVYLHTLAESICKLIFPEFERLNVALQRTLAKHKIKESRKSLEREDFEKTIAEQAVAAGVPVEVIKESLGEEVFKICYEEDENILGVVGGTLKDFLNSFSTLLKQSSHCQEAGKRGRLEDASILCLDKEDDFLHVYYFFPKRTTSLILPGIIKAAAHVLYETEVEVSLMPPCFHNDCSEFVNQPYLLYSVHMKSTKPSLSPSKPQSSLVIPTSLFCKTFPFHFMFDKDMTILQFGNGIRRLMNRRDFQGKPNFEEYFEILTPKINQTFSGIMTMLNMQFVVRVRRWDNSVKKSSRVMDLKGQMIYIVESSAILFLGSPCVDRLEDFTGRGLYLSDIPIHNALRDVVLIGEQARAQDGLKKRLGKLKATLEQAHQALEEEKKKTVDLLCSIFPCEVAQQLWQGQVVQAKKFSNVTMLFSDIVGFTAICSQCSPLQVITMLNALYTRFDQQCGELDVYKVETIGDAYCVAGGLHKESDTHAVQIALMALKMMELSDEVMSPHGEPIKMRIGLHSGSVFAGVVGVKMPRYCLFGNNVTLANKFESCSVPRKINVSPTTYRLLKDCPGFVFTPRSREELPPNFPSEIPGICHFLDAYQQGTNSKPCFQKKDVEDGNANFLGKASGID
chain 2: MYGFVNHALELLVIRNYGPEVWEDIKKEAQLDEEGQFLVRIIYDDSKTYDLVAAASKVLNLNAGEILQMFGKMFFVFCQESGYDTILRVLGSNVREFLQNLDALHDHLATIYPGMRAPSFRCTDAEKGKGLILHYYSEREGLQDIVIGIIKTVAQQIHGTEIDMKVIQQRNEECDHTQFLIEEKESKEEDFYEDLDRFEENGTQESRISPYTFCKAFPFHIIFDRDLVVTQCGNAIYRVLPQLQPGNCSLLSVFSLVRPHIDISFHGILSHINTVFVLRSKEGLLDVEKLECEDELTGTEISCLRLKGQMIYLPEADSILFLCSPSVMNLDDLTRRGLYLSDIPLHDATRDLVLLGEQFREEYKLTQELEILTDRLQLTLRALEDEKKKTDTLLYSVLPPSVANELRHKRPVPAKRYDNVTILFSGIVGFNAFCSKHASGEGAMKIVNLLNDLYTRFDTLTDSRKNPFVYKVETVGDKYMTVSGLPEPCIHHARSICHLALDMMEIAGQVQVDGESVQITIGIHTGEVVTGVIGQRMPRYCLFGNTVNLTSRTETTGEKGKINVSEYTYRCLMSPENSDPQFHLEHRGPVSMKGKKEPMQVWFLSRKNTGTEETKQDDD
modifications: thiols oxidized with 100 μM diamide (cysteines not mapped) | thiols oxidized with 100 μM diamide (cysteines not mapped)
notes: alpha subunit of soluble guanylyl cyclase GC1, human; beta subunit of soluble guanylyl cyclase GC1, human; same protein as m1, oxidized; runs as high molecular weight multimers on a non-reducing gel; also called multimeric oxidized GC1; source: bought: Enzo life sciences (ALX-201-177-C010); treated with 100 μM diamide on ice for 30 min, excess removed
binding result: binds

B4: purified recombinant human soluble guanylyl cyclase (GC1), untreated (complex)
chain 1: B3 chain 1
chain 2: B3 chain 2
notes: alpha subunit of soluble guanylyl cyclase GC1, human; beta subunit of soluble guanylyl cyclase GC1, human; alpha/beta heterodimer as bought; also called untreated GC1; source: bought: Enzo life sciences (ALX-201-177-C010), purified recombinant
binding result: binds
